Experimental data reported in article PMC11574045, “A cofactor-induced repressive type of transcription factor condensation can be induced by synthetic peptides to suppress tumorigenesis” (The EMBO Journal, 2024).

What follows are molecules tested on HEK293FT cells transfected with TF library (assay: Screening of TF condensates based on fluorescent puncta). Settings: Figure 1B numerical data; TF library screen, one value per transcriptional factor.
Assay type: cell-based
How it was run: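 Cells were seeded onto plasmid/PEI-loaded wells (plasmid 1.6 μg/ml final) and grown 60 h. Medium with or without glucose followed for 12 h. Fixed, permeabilized cells were stained against Flag or GAL4 tags, and condensate puncta were quantified from 50 random fields per well.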

Molecule | Z score of condensed fraction
FOXR1 (protein, UniProt Q6PIV2 1-292, looked up) Forkhead box protein R1: MGNELFLAFTTSHLPLAEQKLARYKLRIVKPPKLPLEKKPNPDKDGPDYEPNLWMWVNPNIVYPPGKLEVSGRRKREDLTSTLPSSQPPQKEEDASCSEAAGVESLSQSSSKRSPPRKRFAFSPSTWELTEEEEAEDQEDSSSMALPSPHKRAPLQSRRLRQASSQAGRLWSRPPLNYFHLIALALRNSSPCGLNVQQIYSFTRKHFPFFRTAPEGWKNTVRHNLCFRDSFEKVPVSMQGGASTRPRSCLWKLTEEGHRRFAEEARALASTRLESIQQCMSQPDVMPFLFDL | -0.3141
FOXR2 (protein, UniProt Q6PJQ5 1-311, looked up) Forkhead box protein R2: MDLKLKDCEFWYSLHGQVPGLLDWDMRNELFLPCTTDQCSLAEQILAKYRVGVMKPPEMPQKRRPSPDGDGPPCEPNLWMWVDPNILCPLGSQEAPKPSGKEDLTNISPFPQPPQKDEGSNCSEDKVVESLPSSSSEQSPLQKQGIHSPSDFELTEEEAEEPDDNSLQSPEMKCYQSQKLWQINNQEKSWQRPPLNCSHLIALALRNNPHCGLSVQEIYNFTRQHFPFFWTAPDGWKSTIHYNLCFLDSFEKVPDSLKDEDNARPRSCLWKLTKEGHRRFWEETRVLAFAQRERIQECMSQPELLTSLFDL | -0.6086
FOXI1 (protein, UniProt Q12951 1-378, looked up) Forkhead box protein I1: MSSFDLPAPSPPRCSPQFPSIGQEPPEMNLYYENFFHPQGVPSPQRPSFEGGGEYGATPNPYLWFNGPTMTPPPYLPGPNASPFLPQAYGVQRPLLPSVSGLGGSDLGWLPIPSQEELMKLVRPPYSYSALIAMAIHGAPDKRLTLSQIYQYVADNFPFYNKSKAGWQNSIRHNLSLNDCFKKVPRDEDDPGKGNYWTLDPNCEKMFDNGNFRRKRKRKSDVSSSTASLALEKTESSLPVDSPKTTEPQDILDGASPGGTTSSPEKRPSPPPSGAPCLNSFLSSMTAYVSGGSPTSHPLVTPGLSPEPSDKTGQNSLTFNSFSPLTNLSNHSGGGDWANPMPTNMLSYGGSVLSQFSPHFYNSVNTSGVLYPREGTEV | -1.1314
GABPB1 (protein, UniProt Q06547 2-395, looked up) GA-binding protein subunit …: SLVDLGKKLLEAARAGQDDEVRILMANGAPFTTDWLGTSPLHLAAQYGHYSTTEVLLRAGVSRDARTKVDRTPLHMAASEGHASIVEVLLKHGADVNAKDMLKMTALHWATEHNHQEVVELLIKYGADVHTQSKFCKTAFDISIDNGNEDLAEILQIAMQNQINTNPESPDTVTIHAATPQFIIGPGGVVNLTGLVSSENSSKATDETGVSAVQFGNSSTSVLATLAALAEASAPLSNSSETPVVATEEVVTAESVDGAIQQVVSSGGQQVITIVTDGIQLGNLHSIPTSGIGQPIIVTMPDGQQVLTVPATDIAEETVISEEPPAKRQCIEIIENRVESAEIEEREALQKQLDEANREAQKYRQQLLKKEQEAEAYRQKLEAMTRLQTNKEAV | -0.05729
FOXS1 (protein, UniProt O43638 1-330, looked up) Forkhead box protein S1: MQQQPLPGPGAPTTEPTKPPYSYIALIAMAIQSSPGQRATLSGIYRYIMGRFAFYRHNRPGWQNSIRHNLSLNECFVKVPRDDRKPGKGSYWTLDPDCHDMFEHGSFLRRRRRFTRQTGAEGTRGPAKARRGPLRATSQDPGVPNATTGRQCSFPPELPDPKGLSFGGLVGAMPASMCPATTDGRPRPPMEPKEISTPKPACPGELPVATSSSSCPAFGFPAGFSEAESFNKAPTPVLSPESGIGSSYQCRLQALNFCMGADPGLEHLLASAAPSPAPPTPPGSLRAPLPLPTDHKEPWVAGGFPVQGGSGYPLGLTPCLYRTPGMFFFE | 2.025
FOXP4 (protein, UniProt Q8IVH2 1-680, looked up) Forkhead box protein P4: MMVESASETIRSAPSGQNGVGSLSGQADGSSGGATGTTASGTGREVTTGADSNGEMSPAELLHFQQQQALQVARQFLLQQASGLSSPGNNDSKQSASAVQVPVSVAMMSPQMLTPQQMQQILSPPQLQALLQQQQALMLQQLQEYYKKQQEQLHLQLLTQQQAGKPQPKEALGNKQLAFQQQLLQMQQLQQQHLLNLQRQGLVSLQPNQASGPLQTLPQAAVCPTDLPQLWKGEGAPGQPAEDSVKQEGLDLTGTAATATSFAAPPKVSPPLSHHTLPNGQPTVLTSRRDSSSHEETPGSHPLYGHGECKWPGCETLCEDLGQFIKHLNTEHALDDRSTAQCRVQMQVVQQLEIQLAKESERLQAMMAHLHMRPSEPKPFSQPLNPVPGSSSFSKVTVSAADSFPDGLVHPPTSAAAPVTPLRPPGLGSASLHGGGPARRRSSDKFCSPISSELAQNHEFYKNADVRPPFTYASLIRQAILETPDRQLTLNEIYNWFTRMFAYFRRNTATWKNAVRHNLSLHKCFVRVENVKGAVWTVDEREYQKRRPPKMTGSPTLVKNMISGLSYGALNASYQAALAESSFPLLNSPGMLNPGSASSLLPLSHDDVGAPVEPLPSNGSSSPPRLSPPQYSHQVQVKEEPAEAEEDRQPGPPLGAPNPSASGPPEDRDLEEELPGEELS | 0.7085
AIOLOS (protein, UniProt Q9UKT9 1-509, looked up) Zinc finger protein Aiolos: MEDIQTNAELKSTQEQSVPAESAAVLNDYSLTKSHEMENVDSGEGPANEDEDIGDDSMKVKDEYSERDENVLKSEPMGNAEEPEIPYSYSREYNEYENIKLERHVVSFDSSRPTSGKMNCDVCGLSCISFNVLMVHKRSHTGERPFQCNQCGASFTQKGNLLRHIKLHTGEKPFKCHLCNYACQRRDALTGHLRTHSVEKPYKCEFCGRSYKQRSSLEEHKERCRTFLQSTDPGDTASAEARHIKAEMGSERALVLDRLASNVAKRKSSMPQKFIGEKRHCFDVNYNSSYMYEKESELIQTRMMDQAINNAISYLGAEALRPLVQTPPAPTSEMVPVISSMYPIALTRAEMSNGAPQELEKKSIHLPEKSVPSERGLSPNNSGHDSTDTDSNHEERQNHIYQQNHMVLSRARNGMPLLKEVPRSYELLKPPPICPRDSVKVINKEGEVMDVYRCDHCRVLFLDYVMFTIHMGCHGFRDPFECNMCGYRSHDRYEFSSHIARGEHRALLK | 0.5203
FOXM1 (protein, UniProt O08696 1-760, looked up) Forkhead box protein M1: MRTSPRRPLILKRRRLPLPVQNAPSETSEEEAKRSPAQPEPAPAQASQEVAESSSCKFPAGIKIINHPTTPNTQVVAIPSNADIQSIITALTAKGKESGTSGPNRFILISSGGPSSHPSQPQAHSSRDSKRAEVITETLGPKPAAKGVPVPKPPGAPPRQRQESYAGGEAAGCTLDNSLTNIQWLGKMSSDGLGPCSVKQELEEKENCHLEQNRVKVEEPSGVSTSWQDSVSERPPYSYMAMIQFAINSTERKRMTLKDIYTWIEDHFPYFKHIAKPGWKNSIRHNLSLHDMFVRETSANGKVSFWTIHPSANRHLTLDQVFKPLEPGSPQSPEHLESQQKRPNPELHRNVTIKTEIPLGARRKMKPLLPRVSSYLEPIQFPVNQSLVLQPSVKVPFRLAASLMSSELARHSKRVRIAPKVLLSSEGIAPLPATEPPKEEKPLLGGEGLLPLLPIQSIKEEEMQPEEDIAHLERPIKVESPPLEEWPSPCASLKEELSNSWEDSSCSPTPKPKKSYCGLKSPTRCVSEMLVTKRREKREVSRSRRKQHLQPPCLDEPDLFFPEDSSTFRPAVELLAESSEPAPHLSCPQEEGGPFKTPIKETLPVSSTPSKSVLSRDPESWRLTPPAKVGGLDFSPVRTPQGAFGLLPDSLGLMELNTTPLKSGPLFDSPRELLNSEPFDLASDPFGSPPPPHVEGPKPGSPELQIPSLSANRSLTEGLVLDTMNDSLSKILLDISFPGLEEDPLGPDNINWSQFIPELR | 2.036
FOXI2 (protein, UniProt Q6ZQN5 1-318, looked up) Forkhead box protein I2: MATYCDDLGPSSAPPGQAQATAHPPGYEPGDLGAVGGGPLLWVNAPALSPKSYASGPGPAPPYAAPSYGAPGPLLGAPGGLAGADLAWLSLSGQQELLRLVRPPYSYSALIAMAIQSAPLRKLTLSQIYQYVAGNFPFYKRSKAGWQNSIRHNLSLNDCFKKVPRDEDDPGKGNYWTLDPNCEKMFDNGNFRRKRKRRAEASAAVRSGARSVGGAEAPALEPPSAACLDLQASPSPSAPEAATCFSGFASAMSALAGGLGTFPGGLAGDFSFGRRPPTVATHAPQTLNPSPGFAPGHQTAAAGFRLSHLLYSREGTEV | -0.5391
FOXF2 (protein, UniProt O54743 1-446, looked up) Forkhead box protein F2: MSTEGGPPPPPPRPPPAPLRRACSPAPGALQAALMSPPPAATLESTSSSSSSSSASCASSSSNSVSASAGACKSAASSGGAGAGSGGTKKATSGLRRPEKPPYSYIALIVMAIQSSPSKRLTLSEIYQFLQARFPFFRGAYQGWKNSVRHNLSLNECFIKLPKGLGRPGKGHYWTIDPASEFMFEEGSFRRRPRGFRRKCQALKPMYHRVVSGLGFGASLLPQGFDFQAPPSAPLGCHGQGGYGGLDMMPAGYDTGAGAPGHAHPHHLHHHHVPHMSPNPGSTYMASCPVPAGPAGVGAAAGGGGGGGDYGPDSSSSPVPSSPAMASAIECHSPYTSPAAHWSSPGASPYLKQPPALTPSSNPAASAGLHPSMSSYSLEQSYLHQNAREDLSVGLPRYQHHSTPVCDRKDFVLNFNGISSFHPSASGSYYHHHHQSVCQDIKPCVM | 0.2019
FOXN2 (protein, UniProt P32314 1-431, looked up) Forkhead box protein N2: MGPVIGMTPDKRAETPGAEKIAGLSQIYKMGSLPEAVDAARPKATLVDSESADDELTNLNWLHESTNLLTNFSLGSEGLPIVSPLYDIEGDDVPSFGPACYQNPEKKSATSKPPYSFSLLIYMAIEHSPNKCLPVKEIYSWILDHFPYFATAPTGWKNSVRHNLSLNKCFQKVERSHGKVNGKGSLWCVDPEYKPNLIQALKKQPFSSASSQNGSLSPHYLSSVIKQNQVRNLKESDIDAAAAMMLLNTSIEQGILECEKPLPLKTALQKKRSYGNAFHHPSAVRLQESDSLATSIDPKEDHNYSASSMAAQRCASRSSVSSLSSVDEVYEFIPKNSHVGSDGSEGFHSEEDTDVDYEDDPLGDSGYASQPCAKISEKGQSGKKMRKQTCQEIDEELKEAAGSLLHLAGIRTCLGSLISTAKTQNQKQRKK | -0.402
FOXO3 (protein, UniProt O43524 1-673, looked up) Forkhead box protein O3: MAEAPASPAPLSPLEVELDPEFEPQSRPRSCTWPLQRPELQASPAKPSGETAADSMIPEEEDDEDDEDGGGRAGSAMAIGGGGGSGTLGSGLLLEDSARVLAPGGQDPGSGPATAAGGLSGGTQALLQPQQPLPPPQPGAAGGSGQPRKCSSRRNAWGNLSYADLITRAIESSPDKRLTLSQIYEWMVRCVPYFKDKGDSNSSAGWKNSIRHNLSLHSRFMRVQNEGTGKSSWWIINPDGGKSGKAPRRRAVSMDNSNKYTKSRGRAAKKKAALQTAPESADDSPSQLSKWPGSPTSRSSDELDAWTDFRSRTNSNASTVSGRLSPIMASTELDEVQDDDAPLSPMLYSSSASLSPSVSKPCTVELPRLTDMAGTMNLNDGLTENLMDDLLDNITLPPSQPSPTGGLMQRSSSFPYTTKGSGLGSPTSSFNSTVFGPSSLNSLRQSPMQTIQENKPATFSSMSHYGNQTLQDLLTSDSLSHSDVMMTQSDPLMSQASTAVSAQNSRRNVMLRNDPMMSFAAQPNQGSLVNQNLLHHQHQTQGALGGSRALSNSVSNMGLSESSSLGSAKHQQQSPVSQSMQTLSDSLSGSSLYSTSANLPVMGHEKFPSDLDLDMFNGSLECDMESIIRSELMDADGLDFNFDSLISTQNVVGLNVGNFTGAKQASSQSWVPG | -0.5303
